Measurements taken from doi:10.1101/2025.01.27.635082 (bioRxiv, 2025).

B1: mouse phosphomannomutase 2 (Pmm2) (enzyme, UniProt Q9Z2M7 1-242, looked up)
chain: MATLCLFDMDGTLTAPRQKITEEMDGFLQKLRQKTKIGVVGGSDFEKLQEQLGNDVVEKYDYVFPENGLVAYKDGKLLCKQNIQGHLGEDVIQDLINYCLSYIANIKLPKKRGTFIEFRNGMLNVSPIGRSCSQEERIEFYELDKKEHIRQKFVADLRKEFAGKGLTFSIGGQISIDVFPEGWDKRYCLRHLEHAGYKTIYFFGDKTMPGGNDHEIFTDPRTVGYTVTAPEDTRRICEGLFP
B2: human phosphomannomutase 2 (hPMM2) (enzyme)
chain: MAAPGPALCLFDVDGTLTAPRQKITKEMDDFLQKLRQKIKIGVVGGSDFEKVQEQLGNDVVEKYDYVFPENGLVAYKDGKLLCRQNIQSHLGEALIQDLINYCLSYIAKIKLPKKRGTFIEFRNGMLNVSPIGRSCSQEERIEFYELDKKENIRQKFVADLRKEFAGKGLTFSIGGQISFDVFPDGWDKRYCLRHVENDGYKTIYFFGDKTMPGGNDHEIFTDPRTMGYSVTAPEDTRRICELLFS

Biological target: the molecule itself
Experiment: SEC

Protein | stoichiometry N
B1 | 2
B2 | 2
